# Source: IntAct's records for PubMed 25281266
# B1: Peregrin (Homo sapiens), P55201 (parent)
# chain: MGVDFDVKTFCHNLRATKPPYECPVETCRKVYKSYSGIEYHLYHYDHDNPPPPQQTPLRKHKKKGRQSRPANKQSPSPSEVSQSPGREVMSYAQAQRMVEVDLHGRVHRISIFDNLDVVSEDEEAPEEAPENGSNKENTETPAATPKSGKHKNKEKRKDSNHHHHHNVSASTTPKLPEVVYRELEQDTPDAPPRPTSYYRYIEKSAEELDEEVEYDMDEEDYIWLDIMNERRKTEGVSPIPQEIFEYLMDRLEKESYFESHNKGDPNALVDEDAVCCICNDGECQNSNVILFCDMCNLAVHQECYGVPYIPEGQWLCRRCLQSPSRAVDCALCPNKGGAFKQTDDGRWAHVVCALWIPEVCFANTVFLEPIDSIEHIPPARWKLTCYICKQRGSGACIQCHKANCYTAFHVTCAQQAGLYMKMEPVRETGANGTSFSVRKTAYCDIHTPPGSARRLPALSHSEGEEDEDEEEDEGKGWSSEKVKKAKAKSRIKMKKARKILAEKRAAAPVVSVPCIPPHRLSKITNRLTIQRKSQFMQRLHSYWTLKRQSRNGVPLLRRLQTHLQSQRNCDQVGRDSEDKNWALKEQLKSWQRLRHDLERARLLVELIRKREKLKRETIKVQQIAMEMQLTPFLILLRKTLEQLQEKDTGNIFSEPVPLSEVPDYLDHIKKPMDFFTMKQNLEAYRYLNFDDFEEDFNLIVSNCLKYNAKDTIFYRAAVRLREQGGAVLRQARRQAEKMGIDFETGMHIPHSLAGDEATHHTEDAAEEERLVLLENQKHLPVEEQLKLLLERLDEVNASKQSVGRSRRAKMIKKEMTALRRKLAHQRETGRDGPERHGPSSRGSLTPHPAACDKDGQTDSAAEESSSQETSKGLGPNMSSTPAHEVGRRTSVLFSKKNPKTAGPPKRPGRPPKNRESQMTPSHGGSPVGPPQLPIMSSLRQRKRGRSPRPSSSSDSDSDKSTEDPPMDLPANGFSGGNQPVKKSFLVYRNDCSLPRSSSDSESSSSSSSSAASDRTSTTPSKQGRGKPSFSRGTFPEDSSEDTSGTENEAYSVGTGRGVGHSMVRKSLGRGAGWLSEDEDSPLDALDLVWAKCRGYPSYPALIIDPKMPREGMFHHGVPIPVPPLEVLKLGEQMTQEAREHLYLVLFFDNKRTWQWLPRTKLVPLGVNQDLDKEKMLEGRKSNIRKSVQIAYHRALQHRSKVQGEQSSETSDSD
# Variants of: B1
# Settings: with h2a1_human H2AC11, P0C0S8
row,effect of a mutation on the interaction,Variant
1,disrupting interaction,F714A

# Variants of: B1
# Settings: with h4_human H4C16, P62805
row,effect of a mutation on the interaction,Variant
1,disrupting interaction,F714A

# Variants of: B1
# Settings: with h2a1_human H2AC11, P0C0S8
# Remark: another data set of the same source
row,effect of a mutation on the interaction,Variant
1,decreasing interaction,A709S

# Variants of: B1
# Settings: with h4_human H4C16, P62805
# Remark: another data set of the same source
row,effect of a mutation on the interaction,Variant
1,decreasing interaction,A709S

# Variants of: B1
# Settings: with h2a1_human H2AC11, P0C0S8
# Remark: another data set of the same source
row,effect of a mutation on the interaction,Variant
1,decreasing interaction,E661A

# Variants of: B1
# Settings: with h4_human H4C16, P62805
# Remark: another data set of the same source
row,effect of a mutation on the interaction,Variant
1,decreasing interaction,E661A

# Variants of: B1
# Settings: with h2a1_human H2AC11, P0C0S8
# Remark: another data set of the same source
row,effect of a mutation on the interaction,Variant
1,disrupting interaction,N708A

# Variants of: B1
# Settings: with h4_human H4C16, P62805
# Remark: another data set of the same source
row,effect of a mutation on the interaction,Variant
1,disrupting interaction,N708A

# Variants of: B1
# Settings: with h2a1_human H2AC11, P0C0S8
# Remark: another data set of the same source
row,effect of a mutation on the interaction,Variant
1,decreasing interaction,C704A

# Variants of: B1
# Settings: with h4_human H4C16, P62805
# Remark: another data set of the same source
row,effect of a mutation on the interaction,Variant
1,decreasing interaction,C704A

# Variants of: B1
# Settings: with h2a1_human H2AC11, P0C0S8
# Remark: another data set of the same source
row,effect of a mutation on the interaction,Variant
1,decreasing interaction,I713A

# Variants of: B1
# Settings: with h4_human H4C16, P62805
# Remark: another data set of the same source
row,effect of a mutation on the interaction,Variant
1,decreasing interaction,I713A
